Earlier results as cited in PMC2803043.
pKd: −log10 of the molar value.

Biological target: Frizzled (Drosophila melanogaster) (UniProt P18537)
UniProt P18537, sequence (P18537 19-581): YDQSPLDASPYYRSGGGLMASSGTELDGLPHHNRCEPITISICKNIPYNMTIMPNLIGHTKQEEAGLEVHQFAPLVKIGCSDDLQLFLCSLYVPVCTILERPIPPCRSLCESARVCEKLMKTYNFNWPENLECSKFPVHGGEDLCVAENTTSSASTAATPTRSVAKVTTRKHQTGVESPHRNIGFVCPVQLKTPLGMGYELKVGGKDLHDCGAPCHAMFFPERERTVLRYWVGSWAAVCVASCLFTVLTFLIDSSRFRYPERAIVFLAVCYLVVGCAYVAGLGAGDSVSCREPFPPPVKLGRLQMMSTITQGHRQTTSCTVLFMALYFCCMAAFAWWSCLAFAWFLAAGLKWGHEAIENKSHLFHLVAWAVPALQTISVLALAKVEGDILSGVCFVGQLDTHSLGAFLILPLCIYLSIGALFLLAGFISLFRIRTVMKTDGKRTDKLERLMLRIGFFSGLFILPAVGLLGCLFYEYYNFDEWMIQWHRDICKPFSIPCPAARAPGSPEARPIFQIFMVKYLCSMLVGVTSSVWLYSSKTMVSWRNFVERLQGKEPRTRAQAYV

Dishevelled PDZ (from UniProt P51140)
pKd: 5.00
